# According to patent publication US20240116985A1 (published 2024):
# Starred links: 1 amine or outer side, 2 acyl side, 3 side chain; linkers in the order of their positions; H or OH if unused. Positions of bridges follow the written chain, without caps; N, C: chain ends. Non-standard residues stand in square brackets, D forms with d. Primed or numbered codes have the meaning given here. ξ: configuration not given here. PyrS2″ = (S)-3-amino-1-((pent-4-en-1-yloxy)carbonyl)pyrrolidine-3-carboxylic acid (stapling residue), C=CCCCOC(=O)N1CC[C@@](N[*:1])(C(=O)[*:2])C1; B5(4) = 2,2-bis(4-pentenyl)glycine = 2-amino-2-(pent-4-en-1-yl)hept-6-enoic acid (stitching residue), C=CCCCC(CCCC=C)(N[*:1])C(=O)[*:2]; B5(20) = 2-amino-2-(pent-4-en-1-yl)hept-6-enoic acid = bis(4-pentenyl)glycine, stitching residue, C=CCCCC(CCCC=C)(N[*:1])C(=O)[*:2]; TfeGA = (S)-2-amino-3-((carboxymethyl)(2,2,2-trifluoroethyl)amino)propanoic acid, O=C([C@H](CN(CC(=O)[*:3])CC(F)(F)F)N[*:1])[*:2]; B5″ = 2,2-bis(4-pentenyl)glycine, stitching residue, C=CCCCC(CCCC=C)(N[*:1])C(=O)[*:2]; Phe(2-Cl) = N[C@@H](Cc1ccccc1Cl)C(=O)O; Bta = N[C@@H](Cc1csc2ccccc12)C(=O)O; αAllylPro = C=CC[C@@]1(C(=O)O)CCCN1; tBuAla = CC(C)(C)C[C@H](N)C(=O)O; 3Thi = N[C@@H](Cc1ccsc1)C(=O)O; Cha = N[C@@H](CC1CCCCC1)C(=O)O; S8 = C=CCCCCCC[C@](C)(N)C(=O)O; Thr(ol) = C[C@@H](O)[C@H](N)CO; ξβ3hD = NC(CC(=O)O)CC(=O)O; Aib = CC(C)(N)C(=O)O
# T1: B-cat-Halo (UniProt P35222 1-781)
# T1 sequence (looked up): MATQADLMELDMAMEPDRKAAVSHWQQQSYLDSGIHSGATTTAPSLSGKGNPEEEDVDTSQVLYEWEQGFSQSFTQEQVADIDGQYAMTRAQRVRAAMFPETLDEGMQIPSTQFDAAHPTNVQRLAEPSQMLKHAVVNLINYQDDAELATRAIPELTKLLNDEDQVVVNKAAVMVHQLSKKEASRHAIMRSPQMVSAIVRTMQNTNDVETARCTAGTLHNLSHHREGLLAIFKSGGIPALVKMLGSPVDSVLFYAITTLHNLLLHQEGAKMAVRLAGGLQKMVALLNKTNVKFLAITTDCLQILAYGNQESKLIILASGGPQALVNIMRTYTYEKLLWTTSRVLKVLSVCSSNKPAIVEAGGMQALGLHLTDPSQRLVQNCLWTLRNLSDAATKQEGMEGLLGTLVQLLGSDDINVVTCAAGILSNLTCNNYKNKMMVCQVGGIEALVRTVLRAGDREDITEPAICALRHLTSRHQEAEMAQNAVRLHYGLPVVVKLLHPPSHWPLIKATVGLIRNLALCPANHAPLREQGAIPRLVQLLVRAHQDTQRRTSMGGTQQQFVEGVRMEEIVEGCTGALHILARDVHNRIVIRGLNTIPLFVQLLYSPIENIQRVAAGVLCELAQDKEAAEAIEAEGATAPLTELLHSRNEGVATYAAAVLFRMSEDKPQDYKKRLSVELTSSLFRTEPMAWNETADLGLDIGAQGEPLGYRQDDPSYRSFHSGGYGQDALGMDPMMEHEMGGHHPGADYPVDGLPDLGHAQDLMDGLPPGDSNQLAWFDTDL
# T2: B-cat-Halo (NanoBRET construct expressed in HEK293 cells) (UniProt P35222 1-781)
# T2 sequence (looked up): T1 sequence (looked up)
# T3: B-cat-Halo (beta-catenin HaloTag construct expressed in HEK293 cells) (UniProt P35222 1-781)
# T3 sequence (looked up): T1 sequence (looked up)
# Target: T1, B-cat-Halo
# Assay: cell-based or functional assay
row,NanoBRET Abs IC50 (uM); B-cat-Halo / TCF4-Luc in HEK293 cells,Binder
1,11.9 µM,"Ac-[αAllylPro]D[tBuAla][B5(4)]DDAAFT[S8][Phe(2-Cl)][Bta][Thr(ol)] (staple 1-4, 4-11) [I-1308]"

# Target: T2, B-cat-Halo (NanoBRET construct …)
# Assay: cell-based or functional assay
row,NanoBRET Abs IC50,Binder
1,30.5 µM,"Ac-[αAllylPro]DA[B5(20)]DEAAFN[S8][3Thi][Bta]H-NH2 (staple 1-4, 4-11; also: later-eluting HPLC peak of staple isomers) [I-516]"
2,9.7 µM,"Ac-[αAllylPro]DI[B5(20)]DEAAFN[S8][3Thi][Bta]H-NH2 (staple 1-4, 4-11) [I-517]"
3,28.8 µM,"Ac-[αAllylPro]DA[B5(20)]DEAAFN[S8][3Thi][Bta]Q-NH2 (staple 1-4, 4-11; also: later-eluting HPLC peak of staple isomers) [I-519]"
4,15.4 µM,"Ac-[αAllylPro]DI[B5(20)]DEAAFN[S8][3Thi][Bta]Q-NH2 (staple 1-4, 4-11; also: later-eluting HPLC peak of staple isomers) [I-521]"

# Target: T3, B-cat-Halo (beta-catenin HaloTag …)
# Assay: cell-based or functional assay
row,NanoBRET Abs IC50,Binder
1,> 20 µM,"Ac-[αAllylPro][ξβ3hD][tBuAla][B5(4)]D[TfeGA]AAFN[PyrS2″][3Thi][Bta]Q-NH2 (staple 1-4, 4-11) [I-1161]"
2,14.6 µM,"Ac-[αAllylPro]D[tBuAla][B5(4)]DTAAFT[PyrS2″][3Thi][Bta]Q-NH2 (staple 1-4, 4-11) [I-1166]"
3,11.7 µM,"Ac-[αAllylPro]D[tBuAla][B5(4)]DTAAFL[PyrS2″][3Thi][Bta]Q-NH2 (staple 1-4, 4-11) [I-1167]"
4,13.5 µM,"Ac-[αAllylPro]D[tBuAla][B5(4)]DTAAFT[PyrS2″][3Thi][Bta]S-NH2 (staple 1-4, 4-11) [I-1170]"
5,17.2 µM,"Ac-[αAllylPro]D[Cha][B5(4)]DTAAFT[PyrS2″][3Thi][Bta]Q-NH2 (staple 1-4, 4-11) [I-1173]"
6,4.3 µM,"Ac-[αAllylPro]D[tBuAla][B5(4)]DD[Aib]AFL[PyrS2″][3Thi][Bta]Q-NH2 (staple 1-4, 4-11) [I-1177]"
7,7.2 µM,"Ac-[αAllylPro]D[tBuAla][B5″]DDAAFL[S8][3Thi][Bta]Q-NH2 (staple 1-4, 4-11) [I-1188]"
8,16.2 µM,"Ac-[αAllylPro]D[tBuAla][B5″]DDAAFL[S8][3Thi][Bta]H-NH2 (staple 1-4, 4-11) [I-1195]"
